Measurements as given in article PMC10522976.

Target: Cynomolgus MSLN (cynomolgus macaque)

B1: VH 3C9 (human antibody heavy chain variable domain) (VHH)
VHH: DVQLVESGGGVVQPGRSLRLSCAASGFTFSSYAMHWVRQAPGKGLEWVSSISGNSLYKYYADSVKGRFTISRDDSTNTLYLQMNSLRAEDTATYYCTRHWAVGNWGQGTLVTVSS
Kd: > 100 nM
